# Assay results published in patent publication US20040151731A1.
# Target: HLA-A, B, C on presenting PBL
# Assay: cell-based or functional assay
substance,measurement,value
"W6/32 (anti-HLA-A, B, C) monoclonal antibody",reduction in γIFN secretion of Long Term AAA cells with PBL presenting cells and collagen,74%
